Consider five molecules from PMC6957272, “Activation of a nucleotide-dependent RCK domain requires binding of a cation cofactor to a conserved site” (eLife, 2019).

One series deals with T1, KtrB (B. subtilis, UniProt O32081 1-445).
T1 construct: KtrB, membrane protein of the B. subtilis KtrAB cation channel; The Strep tag held KtrB on Strep-Tactin beads while KtrA was added to assemble the complex; it was cleaved by thrombin before the size-exclusion step; also called wild-type KtrB; source: E. coli BL21(DE3), extracted with DDM, purified (Strep-Tactin Sepharose, size exclusion); not shown: Strep, N-terminal, cleaved
T1 sequence (looked up): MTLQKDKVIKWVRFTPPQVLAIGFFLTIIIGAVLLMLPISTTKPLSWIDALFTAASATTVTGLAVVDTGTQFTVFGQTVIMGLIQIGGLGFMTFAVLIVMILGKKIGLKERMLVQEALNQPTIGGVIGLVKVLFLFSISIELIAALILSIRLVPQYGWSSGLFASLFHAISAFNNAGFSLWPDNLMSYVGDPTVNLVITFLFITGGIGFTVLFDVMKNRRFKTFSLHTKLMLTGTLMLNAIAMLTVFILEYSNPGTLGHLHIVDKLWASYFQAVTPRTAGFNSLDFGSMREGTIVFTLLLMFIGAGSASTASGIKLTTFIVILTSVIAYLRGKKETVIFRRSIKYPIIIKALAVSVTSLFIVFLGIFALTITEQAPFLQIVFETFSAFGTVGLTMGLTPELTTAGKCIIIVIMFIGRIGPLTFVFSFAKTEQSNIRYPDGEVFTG
Put plainly: SEC; purified KtrA-ATP (or ADP) added to Strep-KtrB on Strep-Tactin beads, 30 min 4°C, washed, eluted with desthiobiotin, tag cleaved by thrombin, then Superdex-S200 in Buffer F (10 mM HEPES, 7 mM NMG pH 8.0, 150 mM KCl, 0.5 mM DDM, 5 mM DTT, 0.2 mM EDTA). To be noted: both partners purified. A general note: SEC sorts molecules by how far they enter the pores of the column.

Series [1] deals with the molecule itself. Put plainly: crystal structure; KtrA (WT and mutants) with 1 mM ATP or ADP, sitting-drop vapor diffusion at 20°C; WT-ATP with 5 mM CaCl2.
Series [2] deals with the molecule itself. Put plainly: SEC; KtrA alone, bound to ATP or ADP; Superdex-S200, Buffer C (50 mM Tris-HCl pH 7.5, 150 mM KCl, 5 mM DTT, 0.2 mM EDTA).

B1: wild-type KtrA (natural protein, B. subtilis)
chain: MGRIKNKQFAVIGLGRFGGSICKELHRMGHEVLAVDINEEKVNAYASYATHAVIANATEENELLSLGIRNFEYVIVAIGANIQASTLTTLLLKELDIPNIWVKAQNYYHHKVLEKIGADRIIHPEKDMGVKIAQSLSDENVLNYIDLSDEYSIVELLATRKLDSKSIIDLNVRAKYGCTILAIKHHGDICLSPAPEDIIREQDCLVIMGHKKDIKRFENEGM
notes: KtrA, RCK domain protein of the B. subtilis KtrAB cation channel; tag-less; Tag-less, cloned in a modified pET-24d vector; eluted from ATP-agarose with ATP or ADP and kept with 1 mM nucleotide; also called KtrAWT; WT; source: E. coli BL21(DE3), purified (anion exchange, ATP-agarose, size exclusion)
Regarding B1, in the series with KtrB, the binding result is on record as “binds”. Besides, in series [1], the stoichiometry N (as a rule, a count of units in the complex or per binding partner) came out at 8.

B2: KtrA R16K mutant (natural protein, B. subtilis)
chain: MGRIKNKQFAVIGLGKFGGSICKELHRMGHEVLAVDINEEKVNAYASYATHAVIANATEENELLSLGIRNFEYVIVAIGANIQASTLTTLLLKELDIPNIWVKAQNYYHHKVLEKIGADRIIHPEKDMGVKIAQSLSDENVLNYIDLSDEYSIVELLATRKLDSKSIIDLNVRAKYGCTILAIKHHGDICLSPAPEDIIREQDCLVIMGHKKDIKRFENEGM
notes: KtrA of B. subtilis with R16K; tag-less; source: E. coli BL21(DE3), purified (anion exchange, ATP-agarose, size exclusion)
In the case of B2, the “stoichiometry N” value in series [1] turned out to be 8.

B3: KtrA A80P mutant (natural protein, B. subtilis)
chain: MGRIKNKQFAVIGLGRFGGSICKELHRMGHEVLAVDINEEKVNAYASYATHAVIANATEENELLSLGIRNFEYVIVAIGPNIQASTLTTLLLKELDIPNIWVKAQNYYHHKVLEKIGADRIIHPEKDMGVKIAQSLSDENVLNYIDLSDEYSIVELLATRKLDSKSIIDLNVRAKYGCTILAIKHHGDICLSPAPEDIIREQDCLVIMGHKKDIKRFENEGM
notes: KtrA of B. subtilis with A80P; tag-less; source: E. coli BL21(DE3), purified (anion exchange, ATP-agarose, size exclusion)
As to B3, in the series with KtrB, the binding result is reported as “binds”. In addition, the “stoichiometry N” value in series [2] is 8.

B4: KtrA E125Q mutant (natural protein, B. subtilis)
chain: MGRIKNKQFAVIGLGRFGGSICKELHRMGHEVLAVDINEEKVNAYASYATHAVIANATEENELLSLGIRNFEYVIVAIGANIQASTLTTLLLKELDIPNIWVKAQNYYHHKVLEKIGADRIIHPQKDMGVKIAQSLSDENVLNYIDLSDEYSIVELLATRKLDSKSIIDLNVRAKYGCTILAIKHHGDICLSPAPEDIIREQDCLVIMGHKKDIKRFENEGM
notes: KtrA of B. subtilis with E125Q; tag-less; source: E. coli BL21(DE3), purified (anion exchange, ATP-agarose, size exclusion)
Turning to B4, the binding result with KtrB was “binds”. Also, the “stoichiometry N” value in series [1] worked out at 8.

B5: KtrA R16A mutant (natural protein, B. subtilis)
chain: MGRIKNKQFAVIGLGAFGGSICKELHRMGHEVLAVDINEEKVNAYASYATHAVIANATEENELLSLGIRNFEYVIVAIGANIQASTLTTLLLKELDIPNIWVKAQNYYHHKVLEKIGADRIIHPEKDMGVKIAQSLSDENVLNYIDLSDEYSIVELLATRKLDSKSIIDLNVRAKYGCTILAIKHHGDICLSPAPEDIIREQDCLVIMGHKKDIKRFENEGM
notes: KtrA of B. subtilis with R16A; tag-less; source: E. coli BL21(DE3), purified (anion exchange, ATP-agarose, size exclusion)
With B5, the binding result in the series with KtrB is reported as “binds”. In series [1], the “stoichiometry N” value was 8.
